Reference: article PMC4608562, “Carbohydrate Recognition Specificity of Trans-sialidase Lectin Domain from Trypanosoma congolense” (PLoS Neglected Tropical Diseases, 2015)
Several values for one entry are separate records, joined by “and”; a condition that tells them apart may be missing. Identical values can stand only once.

Assays:
[1] = biological target: recombinant TconTS2 (Trypanosoma congolense trans-sialidase 2; CD, α-helix and LD) (Trypanosoma congolense); experiment: SEC; Superdex 200 10/300 GL, 10 mM phosphate buffer pH 7.4, 4°C, 0.5 mL/min, 100 to 300 μg TconTS in 500 μL, detection at 280 nm; column calibrated with gel filtration markers 29,000-700,000 Da; monomer, dimer and oligomer peaks
TconTS2-LD = biological target: T1, TconTS2-LD (Trypanosoma congolense, UniProt W0YLD6); experiment: STD NMR; assay type: binding; settings: 5.5 uM protein, 3.45 mM ligand; deuterated phosphate pD 7.4; site distinct from mannotriose site
T1 construct: gene TS2; C-terminal lectin-like domain without the CD-LD linker alpha-helix; N-terminal His-MBP and C-terminal SNAP-Strep tags kept; expressed in E. coli Rosetta pLacI

[2] = biological target: recombinant TconTS1 (Trypanosoma congolense trans-sialidase 1; CD, α-helix and LD) (Trypanosoma congolense); experiment: SEC; Superdex 200 10/300 GL, 10 mM phosphate buffer pH 7.4, 4°C, 0.5 mL/min, 100 to 300 μg TconTS in 500 μL, detection at 280 nm; column calibrated with gel filtration markers 29,000-700,000 Da; monomer, dimer and oligomer peaks
[3] = biological target: TconTS1 enzymatically deglycosylated with EndoHf (native conditions) (Trypanosoma congolense); experiment: as above

Molecule: recombinant TconTS2 (Trypanosoma congolense trans-sialidase 2; CD, α-helix and LD) (enzyme)
- stoichiometry N [1]: 2

Molecule: OC[C@H]1O[C@@H](O[C@H]2[C@H](O)[C@@H](O)[C@@H](O)O[C@@H]2CO)[C@H](O)[C@@H](O)[C@H]1O [lactose, β-D-galactosyl-(1–4)-α-D-glucose]
- STD NMR (TconTS2-LD): Binding of lactose to TconTS2-LD was also clearly observed (Fig 3B)

Molecule: recombinant TconTS1 (Trypanosoma congolense trans-sialidase 1; CD, α-helix and LD) (enzyme)
- ratio of monomer to dimer (monomer:dimer) [2]: 1
- stoichiometry N [2]: 2 and 4

Molecule: TconTS1 enzymatically deglycosylated with EndoHf (native conditions) (enzyme)
- stoichiometry N [3]: 2
